Where a chain is given by its changes, count along the chain named.
T1: biotinylated human B7-H7 protein (Acro Biosystems, B77-H82F5) (human, UniProt Q9UM44 23-344, biotinylated)
T1 construct: Bought soluble protein; also called biotin-B7H7 protein
T1 sequence (looked up): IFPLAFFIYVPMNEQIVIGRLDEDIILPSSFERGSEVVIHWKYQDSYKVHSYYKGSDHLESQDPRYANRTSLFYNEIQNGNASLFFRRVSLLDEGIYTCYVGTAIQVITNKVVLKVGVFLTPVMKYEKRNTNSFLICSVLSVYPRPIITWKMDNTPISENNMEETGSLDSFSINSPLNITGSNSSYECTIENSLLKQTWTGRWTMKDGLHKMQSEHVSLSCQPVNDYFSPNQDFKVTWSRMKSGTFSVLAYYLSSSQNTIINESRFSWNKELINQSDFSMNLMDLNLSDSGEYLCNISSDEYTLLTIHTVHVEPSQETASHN

T2: human B7-H7 on the cell surface (human, UniProt Q9UM44 23-414)
T2 construct: whole, on cells; also called hB7-H7; hu B7-H7
T2 sequence (looked up): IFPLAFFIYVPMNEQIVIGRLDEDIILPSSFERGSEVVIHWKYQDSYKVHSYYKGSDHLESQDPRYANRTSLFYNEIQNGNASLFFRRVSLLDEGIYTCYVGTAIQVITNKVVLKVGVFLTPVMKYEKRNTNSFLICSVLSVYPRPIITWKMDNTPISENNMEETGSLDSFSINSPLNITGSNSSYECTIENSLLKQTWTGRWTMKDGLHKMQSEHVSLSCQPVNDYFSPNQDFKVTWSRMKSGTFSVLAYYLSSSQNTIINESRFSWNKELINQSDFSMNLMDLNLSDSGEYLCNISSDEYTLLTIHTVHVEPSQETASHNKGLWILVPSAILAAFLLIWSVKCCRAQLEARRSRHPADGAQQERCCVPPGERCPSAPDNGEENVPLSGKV

T3: human B7-H7 recombinant protein (human, UniProt Q9UM44 23-344)
T3 construct: also called human B7-H7 protein
T3 sequence (looked up): T1 sequence (looked up)

B1: PR003248 (antibody, human IgG1, kappa, V domains shown)
VH: QVQLVESGGGVVQPGRSLRLSCAASGFTFSDYGLHWVRQAPGRGLEWVAVIWYDGSEEYYADSVKGRFTISRDNSKKSLYLQMNSLRAEDTAVYFCARDRNSGALGYFPHWGQGTLVTVSS
VL: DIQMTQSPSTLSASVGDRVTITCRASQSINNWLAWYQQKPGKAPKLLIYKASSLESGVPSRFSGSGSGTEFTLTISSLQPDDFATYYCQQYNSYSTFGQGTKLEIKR
notes: Human IgG1, fully human, from Harbour H2L2 mice; also called 13D8D2
B2: PR003266 (antibody, human IgG1, kappa, V domains shown)
VH: B1 VH with L34M, R43K, V50I, E57N, E58K, K77N, S78T, F95Y, N101S, P109Q
VL: not shown
notes: Human IgG1; also called 7D3D2
B3: PR003261 (antibody, human IgG1, kappa, V domains shown)
VH: QVQLVESGGGVVQPGRSLRLSCAASGFTFSNYGMHWVRQAPGKGLEWVAVIWYDGTNKNYADSVKGRFTISRDNSKNTLDLQMNSLRAEDTAVYFCARDRNTAMDYFVYWGQGTLVTVSS
VL: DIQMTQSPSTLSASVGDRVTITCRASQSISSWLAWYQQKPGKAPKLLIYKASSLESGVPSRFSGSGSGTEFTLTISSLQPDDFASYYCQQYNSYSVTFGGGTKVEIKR
notes: Human IgG1; also called 74A11E4
B4: PR003250 (antibody, human IgG1, kappa, V domains shown)
VH: QVQLVESGGGVVQPGRSLRLSCAASGFTFSDYGIHWVRQAPGKGLEWVAVIWYDGSDKYYADSVRGRFTISRDNSKNTLSLQMNSLRAEDTAVYYCARDRSSGAMGYFAYWGQGTLVTVSS
VL: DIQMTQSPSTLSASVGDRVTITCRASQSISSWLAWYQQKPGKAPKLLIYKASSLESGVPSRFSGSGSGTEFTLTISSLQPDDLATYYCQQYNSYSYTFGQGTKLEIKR
notes: Human IgG1; also called 34G2E6
B5: PR003252 (antibody, human IgG1, kappa, V domains shown)
VH: QVQLVESGGGVVQPGRSLRLSCAASGFTFSNYAMHWVRQVPGKGLEWVALIWYDGSEKYYADSVKGRFTISRDDSKNTLFLQMSSLRAEDTAVYSCVREYSSGWGYFDYWGQGTQVTVSS
VL: DIQMTQSPSTLSASVGDRVTITCRASQSISSWLAWYQQKPGKAPKLLIYKASSLKSGVPSRFSGSGSGTEFTLTISSLQPDDFATYYCLQYNSYYTFGQGTKLEIKR
notes: Human IgG1; also called 53C12D4

Legend:
[1] = biological target: T1, biotinylated human B7-H7 protein (Acro …); test: BLI epitope competition on SA-captured biotinylated B7-H7; competitor (first antibody) PR003249
Protocol: Epitope competition experiments were performed on the anti-B7-H7 antibodies using the ForteBio Octet Red96e platform with the same experimental buffer as described above. […] After being equilibrated in a buffer for 120 s, the sensors were immersed in various antibodies diluted to 100 nM for 240 s, and the final signal of the antibody binding to B7-H7 was recorded as the 100% signal for that antibody. Second step, epitope competition experiment: B7-H7 was captured using SA sensors at a capture height of 0.25 nm. The sensors were immersed in a first antibody (concentration: 100 nM) for 240 s, then the SA sensors were immersed in a mixture of the first antibody and a second antibody (final concentration of both antibodies: 100 nM) for 240 s, and the difference in signals before and after immersing the sensors in the mixture of the two antibodies was recorded as the signal for that antibody as the second antibody. The inhibition rate was calculated by the following equation, […]

[2] = biological target: T1, biotinylated human B7-H7 protein (Acro …); test: flow cytometry, blocking of biotinylated human B7-H7 binding to HEK-293/CD28H cells
Protocol: This example was intended to study the in vitro blocking activity of human anti-B7-H7 antibodies against the binding of human B7-H7 to its receptor CD28H. […] The cells were adjusted to a cell density of 1×10⁶ cells/mL. […] The cells were incubated at 4° C. for 1 hour in the dark. […] The cells were rinsed twice by adding pre-chilled PBS containing 2% BSA at 100 μL/well, and were centrifuged at 500 g at 4° C. for 5 minutes, and the supernatant was discarded. A fluorescent secondary antibody (PE Streptavidin, BD, Cat #: 554061, 1:200) was added at 100 μL/well, and the cells were incubated at 4° C. for 30 minutes in the dark. The cells were washed twice by adding pre-chilled PBS at 200 μL/well, and centrifuged at 500 g at 4° C. for 5 minutes, and the supernatant was discarded. Finally, the cells were resuspended in pre-chilled PBS at 200 μL/well, and the fluorescence signal values were read using an ACEA Novocyte3000 flow cytometer. IC50 was calculated.

[3] = biological target: T2, human B7-H7 on the cell surface; test: flow cytometry, HEK-293/hu B7-H7 cells
Protocol: (§1) This example was intended to study the in vitro activity of H2L2 monoclonal antibodies against human B7-H7 in binding to human/cynomolgus monkey B7-H7. Since homologous molecules of B7-H7 were not present in mice, the detection was not performed. […] The cells were adjusted to a cell density of 1×10⁶ cells/mL, respectively. The cells were seeded in a 96-well V-bottom plate (Corning, #3894) at 100 μL/well, and the antibody to be tested at 2× final concentration with 3-fold concentration gradient dilution was then added at 100 μL/well. The cells were incubated at 4° C. for 2 hours in the dark. After the incubation, the cells were rinsed twice by adding pre-chilled PBS containing 2% BSA at 100 μl/well, and centrifuged at 500 g at 4° C. for 5 minutes, and the supernatant was discarded. […] The cells were washed twice by adding pre-chilled PBS containing 2% BSA at 100 μL/well, and centrifuged at 500 g at 4° C. for 5 minutes, and the supernatant was discarded. Finally, the cells were resuspended in pre-chilled PBS containing 2% BSA at 200 μL/well, and the fluorescence signal values were read using an ACEA Novocyte3000 flow cytometer.

[4] = biological target: T4, cynomolgus monkey B7-H7 on the cell surface (cynomolgus monkey); test: flow cytometry, HEK-293/cyno B7-H7 cells
T4 construct: whole, on cells; also called cyno B7-H7
Protocol: as §1

[5] = biological target: T1, biotinylated human B7-H7 protein (Acro …); test: flow cytometry, blocking of biotinylated human B7-H7 binding to CHO-K1/KIR3DL3 cells
Description: This example was intended to study the in vitro blocking activity of human anti-B7-H7 antibodies against the binding of human B7-H7 to its receptor KIR3DL3. A CHO-K1 cell (CHO-K1/KIR3DL3, Harbour BioMed US, Inc.) overexpressing human KIR3DL3 was used in experiments at the cellular level where human B7-H7/human KIR3DL3 binding was blocked. Briefly, the CHO-K1/KIR3DL3 cells were digested and resuspended in PBS containing 2% BSA. The cells were adjusted to a cell density of 1×10⁶ cells/mL. […] The cells were incubated at 4° C. for 1 hour in the dark. […] The cells were rinsed twice by adding pre-chilled PBS containing 2% BSA at 100 μL/well, and were centrifuged at 500 g at 4° C. for 5 minutes, and the supernatant was discarded. A fluorescent secondary antibody (PE Streptavidin, BD, Cat #: 554061, 1:200) was added at 100 μL/well, and the cells were incubated at 4° C. for 30 minutes in the dark. The cells were washed twice by adding pre-chilled PBS at 200 µL/well, and centrifuged at 500 g at 4° C. for 5 minutes, and the supernatant was discarded. Finally, the cells were resuspended in pre-chilled PBS at 200 μL/well, and the fluorescence signal values were read using an ACEA Novocyte3000 flow cytometer. IC50 was calculated.

[6] = biological target: T3, human B7-H7 recombinant protein; test: BLI (Octet), antibody captured on AHC sensor, human B7-H7 in solution, 1:1 global fit
Protocol: The binding kinetics between antigen and antibody was analyzed using an Octet Red 96e (Fortebio) molecular interaction analyzer by biolayer interferometry (BLI) technology.
For determining the affinity of antibodies for antigens, the rotary speed of the sensor was set at 1000 rpm. AHC sensors (Fortebio, #18-5060) placed in one column were first equilibrated in a test buffer for 10 minutes, and then used to capture the anti-B7-H7 antibodies at a capture height of 0.7 nm; and after being equilibrated in the buffer for 120 s, the AHC sensors bound to human B7-H7 (concentrations: 50-3.125 nM and 0 nM) with 2-fold gradient dilution for 180 s and dissociated for 300 s. The AHC sensors were finally regenerated by immersing in a 10 mM glycine-hydrochloric acid solution with pH 1.5 to elute the protein bound to the sensors.
For data analysis using Octet Data Analysis software (Fortebio, version 11.0), 0 nM well was used as the reference well, reference subtraction was performed, “1:1 Global fitting” method was selected for data fitting, the kinetic parameters of the binding of the antigen to the antigen-binding protein were calculated, and the kₒₙ (1/Ms) value, kdis (1/s) value and KD (M) value were obtained.

[7] = biological target: T2, human B7-H7 on the cell surface; test: flow cytometry, HCC827 cells
Protocol: as §1

| Binder | Competitive inhibition rate (%) [1] [%] | IC50 [2] [nM] | Maximum inhibition rate (%) [2] [%] | EC50 [3] [nM] | Maximum MFI [3] [MFI] | EC50 [4] [nM] | Maximum MFI [4] [MFI] | IC50 [5] [nM] | Maximum inhibition rate (%) [5] [%] | Kd [6] [nM] | koff [6] [s⁻¹] | kon [6] [M⁻¹ s⁻¹] | EC50 [7] [nM] | Maximum MFI [7] [MFI] |
| --- | --- | --- | --- | --- | --- | --- | --- | --- | --- | --- | --- | --- | --- | --- |
| B1 | 108 | 1.87 | 101 | 1.81 | 981000 | 8.51 | 698000 | 12.9 | 99.3 | 1.6 | 0.00014 | 88000 | 0.0399 | 68600 |
| B2 | 107 | 1.57 | 101 | 0.663 | 531000 | 0.211 | 170000 | 8.55 | 102 | 9.93 | 0.000648 | 65200 | 0.0477 | 49300 |
| B3 | 111 | 1.49 | 100 | 0.941 | 723000 | 0.326 | 275000 | 7.5 | 105 | 4.6 | 0.000336 | 73000 | 0.0445 | 60100 |
| B4 | 103 | 1.41 | 101 | 0.995 | 823000 | 0.399 | 405000 | 8.49 | 97.2 | 2.91 | 0.000271 | 93200 | 0.00294 | 68800 |
| B5 | 107 | 1.43 | 101 | 1.04 | 837000 | 0.429 | 414000 | 7.59 | 97.1 | 1.06 | 0.000132 | 125000 | – | 69400 |

Reference: patent publication US20250136696A1 (HARBOUR BIOMED SHANGHAI, published 2025)
